Results reported in US20190374629A1.

Tests used:
basigin (human) [1] = target: basigin (human) (UniProt P35613); test: SPR, BIAcore T200, basigin amine-coupled on CM5 chip, RH5 as analyte 8-0.0625 µM, global 1:1 fit, 20 °C
basigin (human) [2] = target: basigin (human) (UniProt P35613); test: SPR (BIAcore T200), basigin amine-coupled to a CM5 chip; analyte PfRH5ΔNL lyophilised and resuspended before measurement, two-fold dilutions from a top concentration of 8 µM, global 1:1 fit [lower left panel (lyophilised]
basigin (human) [3] = target: basigin (human) (UniProt P35613); test: SPR (BIAcore T200), basigin amine-coupled to a CM5 chip; analyte PfRH5ΔNLHS1 lyophilised and resuspended before measurement, two-fold dilutions from a top concentration of 8 µM, global 1:1 fit [lower right panel (lyophilised]

PfRH5ΔNL (from UniProt Q8IFM5 140-526) (ligand)
Kd (basigin (human) [1]): 290 nM
Kd (basigin (human) [2]): 310 nM

PfRH5ΔNLHS1 (from UniProt Q8IFM5 140-526) (ligand)
Kd (basigin (human) [1]): 410 nM
Kd (basigin (human) [3]): 300 nM
